EC50 data for 22 molecules are collected here from patent publication US20240218057A1 (ROCKEFELLER UNIVERSITY, published 2024).

Substitutions are numbered along the chain they refer to.

The target of this test is T1, SARS-COV-2 RBD (SARS-COV-2, UniProt P0DTC2 319-539).
T1 construct: also called WT RBD
As to the kind of experiment: ELISA, RBD coated. For orientation: In an ELISA, binding on a coated surface is turned into a signal by an enzyme label.

B1: C978 (antibody, V domains shown)
VH: QVQLVQSGAEVKKPGSSVKVSCKASGATFSNYIISWVRQAPGQGLEWMGRTIPLLDIANYAQKFQGRVTITADKSTRIVYMHLGSLTSEDTAVYYCATGKGYSSSSAAYYFDHWGQGTLVTVSS
VL: QSVLTQPPSVSGAPGQRVTISCTGTNSNIGAGYDIHWYQQLPGTAPKLLIYGSNNRPSGVPDRFSGSKSGTSASLAITGLQAEDEADYYCQSYDSSLSGSEVFGGGTKLTVL
notes: IgG; V domains only
The EC50 is the midpoint of the concentration-response curve. B1: the EC50 stood at 2.09 ng/mL.

B2: C984 (antibody, V domains shown)
VH: QVQLVQSGTEVKKPGDSVQVSCKTSGYSFTGYYIHWVRQAPGQGLEWMGRINPNSGGTNYAQKFQGRVIMTRDTSITTAFMELTRLRYDDTAVYFCAREPIEGVIGGMIVNYYYMDVWGRGTTVTVSS
VL: QSALTQPASVSGSPGQSITISCTGTSSDVGGYYYVSWYQQHPGKAPKLMIYDVSSRPSGVSNRFSGSKSGNTASLTISGLQAEDEADYYCSSYTSSNTLVVFGGGTKLTVL
notes: IgG; V domains only
B2 returned an EC50 of 2.76 ng/mL. The EC50 values of the last two molecules are within 1.5-fold of each other.

B3: C985 (antibody, V domains shown)
VH: QVQLVQSGAEVKKPGASVKVSCKASGYIFTGYYMHWVRQAPGQGLEWMGRINPNSGGSRYAEKFQGRVTMTRDTSIITAFMELRGLKSDDTAVYYCAREPIEAVPAGIIVNYYYMDVWGNGTTVTVSS
VL: B2 VL with Y33N, S54T, N62D, N71T, Y93F, S96A, N97F
notes: IgG; V domains only
Consider B3, for which the midpoint of the response, the EC50, lay at 3.67 ng/mL. The EC50 values of the last two molecules are within 1.5-fold of each other.

B4: C981 (antibody, V domains shown)
VH: EVQLVESGGGLVQPGGSLRLSCAASGFTFSNYDMHWVRQVTGNGLEWVAAIGTSGDTYYPDSVKGRFTISRENVKNSLFLQMNSLRAGDTAVYYCARGGSSSWLWYFDLWGRGTLV
VL: DIQMTQSPSSLSASVGDRVTITCRASQSISSHLNWYQQKPGKVPKLLIYAASTLQSGVPSRFSGSGSGTDFTLTISSLQPEDFATYYCQQSYSMPPVTFGQGTRLEIK
notes: IgG; V domains only
The molecule B4 had an EC50 of 2.12 ng/mL. Against the preceding molecule, the EC50 is about 1.7-fold lower.

B5: C1006 (antibody, V domains shown)
VH: QVQLVQSGAEVRKPGSSVKVSCKASGGPFDQYTFSWVRQAPGQGLEWMARITPVVDLTNYAQKFQGRITIITDKSTSTAYMELSSLRSEDTAIYYCATPLNDYYASGNLGLWGQGTLVTVSS
VL: DIQMTQSPSSLSASIGDRVTITCRASQGISYYLAWFQQKPGEAPRSLIYDASSLQSGVPSKFSGSGSGTDFTLTISSLQPEDSATYYCQQYNSYPLTFGGGTKVEIK
notes: IgG; V domains only
In turn, B5 registered an EC50 of 2.04 ng/mL.

B6: C1007 (antibody, V domains shown)
VH: QVQLVQSGSEMKKPGSSVKVSCKAAGGTLNTHTFSWVRQAPGQGLEWMGRITPTVDLTNYAQKFQGRITITADTSTNTAYLELRRLRSEDTAIYYCATPLNDYYASGNLGLWGQGTLVTVSS
VL: B5 VL with R18T, Q38R, E42K, R45K, N92S, S93T
notes: IgG; V domains only
In turn, B6 gave an EC50 of 3.22 ng/mL.

B7: C1003 (antibody, V domains shown)
VH: QVQLVESGGGVVQPGRSLRLSCAASGFAFSSYGMNWVRQAPGKGLEWVTTVSSDGNVNYYIDSVKGRFTISRDNSKNTLYLQMNSLRGDDTAVYYCAKGPRFGWSYRGGSGFDIWGQGTMVTVSS
VL: DIQMTQSPSSLSASVGDRVTITCQASQDISNYLNWYQQKPGKAPKLLIYDASNLETGVPSRFSGSGSGTDFTFTITSLQPEDIATYYCQQYDNLPITFGQGTRLEIK
notes: IgG; V domains only
Molecule B7 showed an EC50 of 1.82 ng/mL. This EC50 lies about 1.8-fold lower than the previous one.

B8: C983 (antibody, V domains shown)
VH: QVQLVESGGGVVRPGRSLRLSCAASGFTFSKYGMHWVRQAPGKGLECVASIAYDGSDDSYADSVKGRFIISRDNSKNTLYLQMNSLRAADTAVYYCAKVLGSYCSASSCHGQRPDYWGQGTLVTVSS
VL: DIQMTQSPSSLSAYVGDRVTITCQASQDISNHLNWYQQKPGKAPNLLIYDASNLETGVPSRFSGSGSGTDFSFTISSLQPEDIATYYCQQYDNVPPWTFGQGTKVEIK
notes: IgG; V domains only
With B8, the EC50 turned out to be 2.11 ng/mL.

B9: C1002 (antibody, V domains shown)
VH: EVQLVESGGGLVQPGGSLRLSCAASEFIVSSNYMTWVRQAPGKGLEWVSIMYPGGSTFYADSVKGRFTISRDNSKNTLYLQINRLRAEDTAVYYCARDIAGRLDYWGQGTLVTVSS
VL: B8 VL with Y14S, S30N, H32Y, N45K, V94L, P95S, P96R, W97L, Q101G
notes: IgG; V domains only
On to B9, for which the EC50 came to 0.83 ng/mL.

B10: C979 (antibody, V domains shown)
VH: QVQLVESGGGVVQPGRSLRLSCVASGFTFSNYGMHWVRQAPGKGLEWVAVILYDGSDKYYLDSVKGRFTISRDNSKNTLFLQLNSLRAEDTAVYYCAKEGNGYGYQYAGMDVWGQGTTVTVS
VL: QSALTQPASVSGSPGQSITISCTGTNSDVGGYDYVSWYQQHPGKAPKLIIFEVINRPSGVSNRFSGSKSGNTASLTISGLRAEDEADYYCCSYTTSTTRVFGGGTKLTVL
notes: IgG; V domains only
B10: the response was half-maximal at 2.54 ng/mL (EC50).

B11: C995 (antibody, V domains shown)
VH: EVQLVESGGGLIQPGRSLRLSCTASGFSVGDYAMSWFRQAPGKGLEWVGFLRNQHYGGTAEYAASVKGRFSISTDASKNIVYLQMDSLKTEDTAVYYCARNDRYIVIVPAEMLYWGQGTLVTVSS
VL: EIVMTQSPATLSVSPGERATLSCRATESVYSNLAWYQQKPGQAPRLLMYDASTRAPGIPARFSGSGSGTEFTLTISSLQSEDFATYYCQQYSNWPPITFGQGTRLEIK
notes: IgG; V domains only
B11: the EC50 is 3.79 ng/mL.

B12: C977 (antibody, V domains shown)
VH: EVQLVESGGGLVQPGGSLRLSCAASGFTFSNYDMHWVRQVTGKGLEWVSLIGTAADAYYADSVKGRFTISRENAKNSLYLQINSLRAGDTAVYFCARGDSSGLYTFFDYWGQGTLVTVSS
VL: DIQMTQSPSSLSASVGDRVTITCRASQSVTRYLNWYQLKPGKAPKLLIYAASSLQSGVPSRFSGSGSGTDFTLTISSLQPEDFATYYCQQSYSTLGLTFGGGTKVEI
notes: IgG; V domains only
Take B12: a half-maximal response (EC50) required 2.13 ng/mL.

B13: C994 (antibody, V domains shown)
VH: QVQLQESGPGLVKPSGTLSLTCAVSGVSISNTNWWNWVRQPPGKGLEWIGEIYHTGSARYNPSLRSRVTISVDKSKNQFSLRLNSATAADTAIYYCARAQTPEFGELLYWGQGALVTVSS
VL: DIQMTQSPSSLSASVGDRVTITCRASQSITDHLNWYQQKPGKAPKLLIYAASSLQTGVPSRFSGSGSETDFTLTISTLQPEDFATYYCQQSYGPPTYSFGQGTKLEIK
notes: IgG; V domains only
In turn, B13 gave an EC50 of 2.09 ng/mL.

B14: C998 (antibody, V domains shown)
VH: QVQLVQSGAEVKKPGASVKVSCKTSGYTFISYYIHWVRQAPGQGLEWMGIINPDGDNTNYAQKFQGRVTMTRDTSTSTVYMELSSLRFEDTAVYYCARGGAIPALRTAFDIWGQGTMVTVSS
VL: DIQMTQSPSTLSASVGDRVTITCRASQSISNWLAWYQQKPGKAPKLLIYKASSLESGVPSRFSGSGSGTEFTLTISSLQPDDFATYYCQEYNSYYFGQGTKLEIK
notes: IgG; V domains only
With B14, the EC50 is 2.51 ng/mL. The EC50 values of the last two molecules are within 1.5-fold of each other.

B15: C999 (antibody, V domains shown)
VH: QVQLVQSGAEVRRPGASVKVSCKASGYTLTHYYIHWVRQAPGQGLEWVGIINPDGDNTNYAQKFQGRVTMTRDTSTSTVYMELSSLRSEDTAIFYCARGGAIPALRSAFDIWGQGTMVTVSS
VL: B14 VL with S30N, S53T, E90Q, Y95F
notes: IgG; V domains only
B15: the EC50 is 2.68 ng/mL.

B16: C1001 (antibody, V domains shown)
VH: QVQLQESGPGLVKPSQTLSLTCTVSGGSISSGDYYWTWIRQPPGKGLEWIGYIFYSGITYYSPSLKSRLTMSIDTSKSQFSLNLSSVTAADTAVYYCARWKRLLQSLHFDYWGQGILVTVSS
VL: QSALTQPRSVSGSPGQSVTISCTGTSSDVGSYDYVSWYQQHPGKAPKVMIYGVDERPSGVPHRFSGSKSGNTASLTISGLQADDEADYFCCFYAGSYTLLFGGGTKVTVL
notes: IgG; V domains only
B16 came in with an EC50 of 3.23 ng/mL. The EC50 values of the last two molecules are within 1.5-fold of each other.

B17: C997 (antibody, V domains shown)
VH: EVQLLESGGGLVQPGGSLRLSCAASGFTFSKDAMSWVRQAPGKGLEWVSTVTGSGTNTYYADSVKGRFTISRDNSNNTLYLQMNSLRAEDTAVYYCANHPLGAAEGYYYYYMDVWGKGTTVTVSS
VL: EIVLTQSPGTLSLSPGERGTLSCRASQRVPSSQLAWYQQKSGQAPRLLIYGASSRASGIPDRFSGSGSGTDFTLNISRLEPEDFAVYYCQQYGSLRALTFGGGTKVEIK
notes: IgG; V domains only
Consider B17, for which the EC50 stood at 3.49 ng/mL.

B18: C982 (antibody, V domains shown)
VH: EVQLVESGGGLVQPGGSLRLSCAASGFTFSNYDMHWVRQPTGGGLEWVSAIGTAGDTYYLASVKGRFTISRENAKNSLSLQMNSLRAGDTAVYYCVRGDTLVQGVIKAYYYYFMDVWGQGITVTVSS
VL: DIQMTQSPSSLSASVGDRVTITCRASQNISRYLNWYQQKPGKAPRLLIYAASTLQSGVPSRFSASGSGTDFTLTITNLQPEDFAVYYCQQTYVMPPYTLAQGTKLEIK
notes: IgG; V domains only
In turn, B18 returned an EC50 of 2.56 ng/mL.

B19: C976 (antibody, V domains shown)
VH: EVQLVESGGALIQPGGSLRLSCAASGFTVSSNDMTWVRQAPGKGLEWVSVIYTGGGTYHADSAKGRFIISRHNSKNTLSLQMNDLRAEDTAVYYCARLTMTTYYFDSWGQGTLVTVSS
VL: SYELTQPPSVSLAPGQTARITCGGNGIGSKSVHWYQQKPGRAPVLVVYDDSVRPSGTPARFSGANSGNTATLTISRVEAGDEADYYCQVWDSFRDHQDWVFGGGTKLTVL
notes: IgG; V domains only
Molecule B19 yielded an EC50 of 2.52 ng/mL.

B20: C1000 (antibody, V domains shown)
VH: QVQLQESGPGLVKPSQTLSLSCTVSGGSISSDDYYWSWIRQPPGKGLEWIGYIYYSGSTYYNSSLKSRVSISVDTSKNQFSLKLSSVTAADTAVYYCARWKRWLQFLYFDYWGQGTLVTVSS
VL: QSALTQPRSVSGSPGQSVTISCTGTSSDVGGYSFVSWYQQHPGKAPKVLIYDVDKRPSGVPDRLSGSKSGNTASLTISGLQAEDEADYYCCSYAGSYTLIFGGGTKLTVL
notes: IgG; V domains only
In turn, B20 gave an EC50 of 3.2 ng/mL.

B21: C996 (antibody, V domains shown)
VH: EVQLVESGGGLVQPGGSLRLSCVASGFTSTNYDMHWVRQAPGRGLQWVSSIGTAGDTYYPGSVRGRFTISRENAKNSLDLQMNSLRVGDTAVYYCARGQRGYYDRSGYYWGWRAFDIWGQGTMVTVSS
VL: SYELTQPPSVSVAPGQTARITCGGNNIGNKSVYWYQQKPGQAPVLVVYDDSGRPSGIPERFSGSNSANTATLTISRVEAGDEADYYCQVWDNNSDQFGGGTKLTVL
notes: IgG; V domains only
Molecule B21 registered an EC50 of 3.07 ng/mL. This EC50 and that of the molecule before are within 1.5-fold of each other.

B22: C993 (antibody, V domains shown)
VH: EVQLLESGGGLVQPGGSLRLSCAASGFPFSIYAMSWVRQAPGKGLEWVSGMRGTTGTTYYADSVKGRFAISRDNSKNMLHLQMNSLRAEDTAVYYCAKSDHGDYVIGAFDIWGQGTMVTVSS
VL: QSALTQPPSASGSPGQSVTISCTGTSGDVGGYNYVSWYQQHPGKAPKLMIYEVSKRPSGVPDRFSGSKSGNTASLTVSGLQAEDEADYYCNSYAGSNNWVFGGGTKLTVL
notes: IgG; V domains only
In turn, B22 came in with an EC50 of 2.29 ng/mL.
